Results: patent publication US20170298096A1 (CANIMGUIDE THERAPEUTICS, published 2017)
No end group written: not given here.

T1: His-tagged P3028 peptide (PGE73) (human)
T1 construct: also called His-tag-P3028; not shown: His-tag
T1 peptide: VFDEFKPLVEEPQNLIK

B1: trypsin-generated albumin fragment SEQ ID NO: 194 KYLYEIAR (peptide)
peptide: KYLYEIAR
B2: trypsin-generated albumin fragment SEQ ID NO: 206 … (peptide)
peptide: CCTESLVNR
B3: trypsin-generated albumin fragment SEQ ID NO: 204 … (peptide)
peptide: CCAAADPHECYAK
B4: trypsin-generated albumin fragment SEQ ID NO: 197 … (peptide)
peptide: VPQVSTPTLVEVSR
B5: Asp-N-generated albumin fragment SEQ ID NO: 227 (peptide)
peptide: VFLGMFLYEYARRHPDYSVVLLLRLAKTYETTLEKCCAAA
B6: trypsin-generated albumin fragment SEQ ID NO: 212 … (peptide)
peptide: VHTECCHGDLLECADDR
B7: trypsin-generated albumin fragment SEQ ID NO: 200 … (peptide)
peptide: SLHTLFGDK
B8: trypsin-generated albumin fragment SEQ ID NO: 205 … (peptide)
peptide: AAFTECCQAADK
B9: trypsin-generated albumin fragment SEQ ID NO: 196 … (peptide)
peptide: VFDEFKPLVEEPQNLIK
B10: Asp-N-generated albumin fragment SEQ ID NO: 223 (peptide)
peptide: YSVVLLLRLAKTYETTLEKCCAAADPHECYAKVF
B11: Asp-N-generated albumin fragment SEQ ID NO: 217 (peptide)
peptide: DHVKLVNEVTEFAKTCVA
B12: trypsin-generated albumin fragment SEQ ID NO: 195 … (peptide)
peptide: KVPQVSTPTLVEVSR
B13: trypsin-generated albumin fragment SEQ ID NO: 198 … (peptide)
peptide: RPCFSALEVDETYVPK
B14: Asp-N-generated albumin fragment SEQ ID NO: 220 (peptide)
peptide: DETYVPKEFNAETFTHA
B15: Asp-N-generated albumin fragment SEQ ID NO: 225 (peptide)
peptide: ICTLSEKERQIKKQTALVELVKHKPKATKEQLKAVM
B16: trypsin-generated albumin fragment SEQ ID NO: 213 … (peptide)
peptide: FKDLGEENFK
B17: trypsin-generated albumin fragment SEQ ID NO: 215 … (peptide)
peptide: LDELRDEGK
B18: trypsin-generated albumin fragment SEQ ID NO: 203 YLYEIAR (peptide)
peptide: YLYEIAR
B19: trypsin-generated albumin fragment SEQ ID NO: 201 … (peptide)
peptide: LKECCEKPLLEK
B20: Asp-N-generated albumin fragment SEQ ID NO: 229 (peptide)
peptide: RVTKCCTESLVNRRPCFSALEVDETYVPKEFNAETFTFHA
B21: Asp-N-generated albumin fragment SEQ ID NO: 226 (peptide)
peptide: LAKYICENQDSISSKLKECCEKPLLEKHCIAEVEN
B22: Asp-N-generated albumin fragment SEQ ID NO: 222 (peptide)
peptide: DKLCTVATLRETYGEM
B23: trypsin-generated albumin fragment SEQ ID NO: 211 … (peptide)
peptide: QEPERNECFLQHK
modifications: not fully specified
B24: trypsin-generated albumin fragment SEQ ID NO: 207 … (peptide)
peptide: QEPERNECFLQHK
modifications: not fully specified
B25: Asp-N-generated albumin fragment SEQ ID NO: 230 (peptide)
peptide: YLSVVLNQLCVLHEKTPVSDRVTKCCCTESLVNRRPFSALEV
B26: trypsin-generated albumin fragment SEQ ID NO: 209 NECFLQHK (peptide)
peptide: NECFLQHK
B27: Asp-N-generated albumin fragment SEQ ID NO: 218 (peptide)
peptide: DDKETCFAEEGKKLVAASQAALGL
B28: Asp-N-generated albumin fragment SEQ ID NO: 224 (peptide)
peptide: KLCTVATLRETYGEMADCCAKQEPERNECFLQHK
B29: trypsin-generated albumin fragment SEQ ID NO: 202 LCTVATLR (peptide)
peptide: LCTVATLR
B30: trypsin-generated albumin fragment SEQ ID NO: 214 … (peptide)
peptide: YICENQDSISSK
B31: trypsin-generated albumin fragment SEQ ID NO: 208 … (peptide)
peptide: AVMDDFAAFVEK
B32: Asp-N-generated albumin fragment SEQ ID NO: 219 (peptide)
peptide: DRVTKCCTESLVNRRPCFSALEV
B33: trypsin-generated albumin fragment SEQ ID NO: 216 DDNPNLPR (peptide)
peptide: DDNPNLPR
B34: Asp-N-generated albumin fragment SEQ ID NO: 228 (peptide)
peptide: LGEENFKALVLIAFAQYLQQCPFEDHVKLVNEVTEFAKTCVA
B35: trypsin-generated albumin fragment SEQ ID NO: 199 FQNALLVR (peptide)
peptide: FQNALLVR
B36: Asp-N-generated albumin fragment SEQ ID NO: 221 (peptide)
peptide: DSISSKLKECCEKPLLEKSHCIAEVEN
B37: SEQ ID NO: 16 (peptide)
peptide: KKLDTFFVKLMLFTER
notes: P28R variant on PEPSCAN card
B38: SEQ ID NO: 18 (peptide)
peptide: KKLDTFFVKLHLFTER
notes: P28R variant on PEPSCAN card
B39: SEQ ID NO: 17 (peptide)
peptide: KKLDTFFVKLTLFTER
notes: P28R variant on PEPSCAN card
B40: SEQ ID NO: 9 (peptide)
peptide: KKLDTFMVKLSLFTER
notes: P28R variant on PEPSCAN card
B41: SEQ ID NO: 13 (peptide)
peptide: KKLDTFLVKLSLFTER
notes: P28R variant on PEPSCAN card
B42: SEQ ID NO: 12 (peptide)
peptide: KKLDTFTVKLSLFTER
notes: P28R variant on PEPSCAN card
B43: SEQ ID NO: 11 (peptide)
peptide: KKLDTFVVKLSLFTER
notes: P28R variant on PEPSCAN card
B44: SEQ ID NO: 10 (peptide)
peptide: KKLDTFSVKLSLFTER
notes: P28R variant on PEPSCAN card
B45: SEQ ID NO: 31 (peptide)
peptide: KKLDTFFVKLSLFNER
notes: P28R variant on PEPSCAN card
B46: SEQ ID NO: 32 (peptide)
peptide: KKLDTFFVKLSLFPER
notes: P28R variant on PEPSCAN card
B47: SEQ ID NO: 33 (peptide)
peptide: KKLDTFFVKLSLFRER
notes: P28R variant on PEPSCAN card
B48: SEQ ID NO: 23 (peptide)
peptide: KKLDTFFVKLSLQTER
notes: P28R variant on PEPSCAN card
B49: SEQ ID NO: 24 (peptide)
peptide: KKLDTFFVKLSLHTER
notes: P28R variant on PEPSCAN card
B50: SEQ ID NO: 30 (peptide)
peptide: KKLDTFFVKLSLRTER
notes: P28R variant on PEPSCAN card
B51: SEQ ID NO: 26 (peptide)
peptide: KKLDTFFVKLSLPTER
notes: P28R variant on PEPSCAN card
B52: SEQ ID NO: 27 (peptide)
peptide: KKLDTFFVKLSLSTER
notes: P28R variant on PEPSCAN card
B53: SEQ ID NO: 29 (peptide)
peptide: KKLDTFFVKLSLATER
notes: P28R variant on PEPSCAN card
B54: SEQ ID NO: 25 (peptide)
peptide: KKLDTFFVKLSLNTER
notes: P28R variant on PEPSCAN card
B55: SEQ ID NO: 28 (peptide)
peptide: KKLDTFFVKLSLGTER
notes: P28R variant on PEPSCAN card
B56: SEQ ID NO: 19 (peptide)
peptide: KKLDTFFVKLSQFTER
notes: P28R variant on PEPSCAN card
B57: SEQ ID NO: 7 (peptide)
peptide: KKLDTAFVKLSLFTER
notes: P28R variant on PEPSCAN card
B58: SEQ ID NO: 8 (peptide)
peptide: KKLDTVFVKLSLFTER
notes: P28R variant on PEPSCAN card
B59: SEQ ID NO: 3 (peptide)
peptide: RKLDTFFVKLSLFTER
notes: P28R variant on PEPSCAN card
B60: SEQ ID NO: 14 (peptide)
peptide: KKLDTFFVKVSLFTER
notes: P28R variant on PEPSCAN card
B61: SEQ ID NO: 548 (peptide)
peptide: KKLDTFFVKLLLFTER
notes: P28R variant on PEPSCAN card
B62: SEQ ID NO: 567 (peptide)
peptide: KKLDTFFVKLSLFDER
notes: P28R variant on PEPSCAN card
B63: SEQ ID NO: 576 (peptide)
peptide: KKLDTFFVKLSLFEER
notes: P28R variant on PEPSCAN card
B64: SEQ ID NO: 580 (peptide)
peptide: KKLDTFFVKLSDFTER
notes: P28R variant on PEPSCAN card
B65: SEQ ID NO: 581 (peptide)
peptide: KKLDTFFVKLSEFTER
notes: P28R variant on PEPSCAN card
B66: SEQ ID NO: 546 (peptide)
peptide: CKLDTFFVKLSLFTER
notes: P28R variant on PEPSCAN card
B67: SEQ ID NO: 578 (peptide)
peptide: KKLDTFFVKDSLFTER
notes: P28R variant on PEPSCAN card
B68: SEQ ID NO: 582 (peptide)
peptide: KKLDTFFVKESLFTER
notes: P28R variant on PEPSCAN card

biological target: Artificial Cell Surface (ACS): biotinylated cell surface proteins from mononuclear cells coupled to streptavidin-sepharose; test: adsorption on ACS column, MALDI-TOF MS

Binder | Percent Absorbed [%]
B1 | 71
B2 | 26
B3 | 32
B4 | 59
B5 | 100
B6 | 13
B7 | 36
B8 | 29
B9 | 60
B10 | 100
B11 | 100
B12 | 64
B13 | 42
B14 | 86
B15 | 100
B16 | 8
B17 | 2
B18 | 34

Binder | Percent Absorbed [%]
B19 | 36
B20 | 100
B21 | 100
B22 | 65
B23 | 18
B24 | 25
B25 | 37
B26 | 22
B27 | 100
B28 | 100
B29 | 35
B30 | 3
B31 | 23
B32 | 87
B33 | 1
B34 | 100
B35 | 41
B36 | 65

Biological target: T1, His-tagged P3028 peptide (PGE73)
Test: PEPSCAN ELISA; peptide on card, His-tagged P3028 in solution
Protocol: (§1) After washing, the peroxidase substrate 2,2′-azine-di-3-ethylbenzthiazoline sulfonate (ABTS) and 2 μL of 3% H2O2 were added. The binding capacity of the mAb was measured as a color development at 405 nm (optical density, OD405). The color development was quantified with a charge-coupled device (CCD)—camera and an image processing system.
(§2) The OD405-values obtained by a CCD-camera was considered as raw data values (“rampo values,” “rampo units,” or “rampo scores”). […] First the CCD-camera made a picture of the card before peroxidase coloring and then again a picture after the peroxidase coloring. […] These values were copied into an excel file and labeled as a raw data file. One follow-up manipulation was allowed. Sometimes a well can contain an air-bubble resulting in a false-positive value. If manual inspection of the cards detect an air-bubble the value are set to 0 for that well.

Binder | RAMPO Score [rampo units]
B37 | > 500
B38 | > 500
B39 | > 500
B40 | > 500
B41 | > 500
B42 | > 500
B43 | > 500
B44 | > 500
B45 | > 500
B46 | > 500
B47 | > 500
B48 | > 500
B49 | > 500
B50 | > 500
B51 | > 500
B52 | > 500
B53 | > 500
B54 | > 500
B55 | > 500
B56 | > 500
B57 | > 500
B58 | > 500
B59 | > 500
B60 | > 500

Biological target: T1, His-tagged P3028 peptide (PGE73)
Test: as above
Remark: another data set of the same source
Protocol: as §1, §2

Binder | RAMPO Score [rampo units]
B61 | 213
B62 | 159
B63 | 110
B64 | 89
B65 | 82
B66 | 215
B67 | 102
B68 | 81
